Results reported in patent publication US20100221183A1, “PEPTIDES FOR TREATING AND DIAGNOSING CANCERS AND METHODS FOR USING THE SAME” (priority 2006, published 2010).
“Also recorded” adds a separate entry of the source. Where no end group is shown, it is not given here. The star is where a group is joined. Biotin = O=C1N[C@H]2[C@H](CS[C@H]2CCCCC(=O)*)N1

B1: synthetic epitope of Hsc71 (GIPPAPRGVPQIEVTF) (peptide)
peptide: Biotin-GIPPAPRGVPQIEVTF
notes: Amino acids 463-478 of Hsc71, synthesized with N-terminal biotin
B2: PanC (DYWDTSWPLLLFGGGC) (peptide)
peptide: DYWDTSWPLLLFGGGC
modifications: also: radiolabeled with 99mTc, site not given here, unlabeled form also used
notes: also called peptide PanC

Experiments:
[1] = system: lung cancer (NCI-H460)
[2] = system: prostate cancer (DU-145)
[3] = system: CCD-1070Sk (fibroblasts); assay: Cell internalization of fluorescein labeled peptide (fluorescent microscopy); type: cell-based; conditions: fibroblasts CCD-1070Sk; 25 μM peptide, one hour at 37C
Protocol: (§1) […], DU-145, and CCD-1070Sk were grown in culture as detailed above. Cells were grown on coverslips in 6 well plates. A 25 μM solution of peptide […]-fluorescein (PanF; SEQ ID NO:12) was prepared in modified Eagle's medium. Cell culture media were replaced with 1.6 mL of peptide-containing medium, and the cells were incubated with peptide for one hour at 37C. Medium was removed and cells were washed three times with PBS. Two mL of 2% formaldehyde in PBS was added to each well, and plates were kept on ice for 15 minutes. Cells were washed with cold PBS three times and rinsed with distilled water. Coverslips were mounted with DAPI containing media and viewed with an Olympus BX51 fluorescent microscope and DP70 digital camera with excitation and emission wavelengths of 490 and 520 nm.

[4] = system: DU-145 (prostate cancer); assay: as above; type: cell-based; conditions: prostate cancer DU-145; 25 μM peptide, one hour at 37C
Protocol: as §1

[5] = system: NCI-H460 (lung cancer); assay: as above; type: cell-based; conditions: 25 μM peptide, one hour at 37C
Protocol: as §1

[6] = biological target: T1, Hsp70 (Homo sapiens, UniProt P0DMV8); assay: Binding competition between epitope of Hsc71 and Hsp70 for 99m-Tc labeled PanC; conditions: various concentrations of epitope, constant 99m-Tc labeled PanC, 1 hour at room temperature
T1 construct: purchased BioVision, Mountain View, Calif
T1 sequence (P0DMV8 whole entry): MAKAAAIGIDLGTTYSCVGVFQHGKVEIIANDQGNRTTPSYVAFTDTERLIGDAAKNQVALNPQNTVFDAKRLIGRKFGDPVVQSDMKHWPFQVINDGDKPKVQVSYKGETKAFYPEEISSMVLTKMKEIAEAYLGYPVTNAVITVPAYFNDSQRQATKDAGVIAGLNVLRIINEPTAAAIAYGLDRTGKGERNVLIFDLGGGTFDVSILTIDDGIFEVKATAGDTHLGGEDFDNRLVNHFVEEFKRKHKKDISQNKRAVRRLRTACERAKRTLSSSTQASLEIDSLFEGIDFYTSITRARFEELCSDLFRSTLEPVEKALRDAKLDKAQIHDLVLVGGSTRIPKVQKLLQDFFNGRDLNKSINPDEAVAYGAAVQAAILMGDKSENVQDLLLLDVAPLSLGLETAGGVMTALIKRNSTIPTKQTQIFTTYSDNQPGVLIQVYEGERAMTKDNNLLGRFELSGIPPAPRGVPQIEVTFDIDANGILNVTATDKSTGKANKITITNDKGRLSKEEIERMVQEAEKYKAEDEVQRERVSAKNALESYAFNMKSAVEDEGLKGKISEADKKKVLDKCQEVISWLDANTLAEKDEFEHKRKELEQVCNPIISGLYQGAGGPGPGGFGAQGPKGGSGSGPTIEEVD

[7] = biological target: BSA (Bos taurus, UniProt P02769); assay: Binding competition control: 99m-Tc labeled PanC on BSA coated wells; conditions: various concentrations of epitope, constant 99m-Tc labeled PanC, 1 hour at room temperature
Chain of BSA (P02769 25-607): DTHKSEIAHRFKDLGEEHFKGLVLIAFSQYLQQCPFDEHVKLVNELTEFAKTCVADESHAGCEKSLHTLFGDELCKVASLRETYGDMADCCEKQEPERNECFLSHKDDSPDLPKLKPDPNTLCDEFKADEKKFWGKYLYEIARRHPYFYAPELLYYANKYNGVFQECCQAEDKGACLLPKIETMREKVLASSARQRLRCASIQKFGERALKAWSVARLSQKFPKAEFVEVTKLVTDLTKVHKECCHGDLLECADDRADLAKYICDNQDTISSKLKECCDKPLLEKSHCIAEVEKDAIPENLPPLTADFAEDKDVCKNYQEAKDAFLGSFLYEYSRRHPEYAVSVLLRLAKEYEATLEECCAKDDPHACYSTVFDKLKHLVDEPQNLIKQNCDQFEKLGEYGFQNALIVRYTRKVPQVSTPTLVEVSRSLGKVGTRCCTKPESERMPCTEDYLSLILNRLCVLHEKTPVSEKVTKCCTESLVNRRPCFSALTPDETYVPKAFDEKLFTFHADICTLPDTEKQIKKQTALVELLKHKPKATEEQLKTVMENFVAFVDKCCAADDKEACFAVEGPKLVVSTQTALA

[8] = biological target: B2; assay: competition: epitope peptide at various concentrations against Hsp70-coated wells for 99mTc-PanC; competitor Hsp70
Protocol: A 96 well plate was prepared by coating each well with Hsp70 (BioVision, Mountain View, Calif.) or BSA (control) by adding 0.5 μg/well in 100 µL of PBS and incubating overnight at 4C. The next day, each well was washed 3× with PBS. […] At the end of incubation, each well was washed 3× with PBS.

[9] = biological target: B1; assay: 99mTc-PanC (20 nM) with 100 uM biotinylated epitope and unlabeled PanC, Neutravidin bead pull-down, gamma counting

DYWDTSWPLLLFGGGS(KFAKFAK)3 [PanL]
cell death (percent cytotoxicity) [1]: dose dependent increase in cell death | cell death (percent cytotoxicity) [2]: dose dependent increase in cell death

DYWDTSWPLLLFGGGSK (SEQ ID NO:12; PanF) (Flourescein)-amide (DYWDTSWPLLLFGGGSK-NH2; also: fluorescein label, site not given here)
cellular uptake (internalization) by fluorescent microscopic visualization [3]: significant uptake wasn't seen; also recorded: but not fibroblasts | cellular uptake (internalization) by fluorescent microscopic visualization [4]: significant cellular uptake; also recorded: Significant internalization | cellular uptake (internalization) by fluorescent microscopic visualization [5]: significant cellular uptake; also recorded: Significant internalization

GIPPAPRGVPQIEVTF (not fully specified (N-terminus)) [synthetic epitope of Hsc71, Conserved region, amino acids 463-478 of Hsc71]
suppression of PanC binding to Hsp70 by the epitope [6]: suppressed binding of PanC to Hsp70 in a concentration dependent manner | suppression of PanC binding to Hsp70 by the epitope ([6]; listed as Hsc71 epitope): interferes with PanC binding to Hsp70 in a concentration dependent manner | suppression of PanC binding to albumin (BSA control) by the epitope [7]: suppressed binding of PanC to albumin approximately equally at all concentrations | suppression of PanC binding to albumin (BSA control) by the epitope ([7]; listed as Hsc71 epitope): suppresses binding of PanC to BSA approximately equally at all concentrations

B1
binding result [8]: binds

B2
labeled/unlabeled PanC ratio above which binding saturates [9]: > 0.1%
